Experimental data taken from article PMC13399123.

How the values were obtained:
[1] = molecular target: GST-SH3 (SH3 domain of cortactin fused to GST) (UniProt Q14247); experiment: GST pull-down with recombinant proteins, anti-MBP immunoblot, quantified; conditions: 10% of the input MBP protein loaded; n = 2; parent: est. 1.0; read off a plot
[2] = molecular target: GST-SH3 (SH3 domain of cortactin fused to GST) (UniProt Q14247); experiment: GST pull-down from cell lysates, anti-HS1BP3 immunoblot, quantified; conditions: lysates of MKN-74 HS1BP3 KO cells rescued with EGFP-HS1BP3 WT or PRR3.1 mutant; n = 2; parent: est. 8.5; read off a plot; scale: % of GST-SH3 interaction
[3] = molecular target: cortactin (CTTN), endogenous in MKN-74 cells (UniProt Q14247); experiment: GFP-trap pull-down from cell lysates, anti-cortactin immunoblot, quantified; conditions: MKN-74 HS1BP3 KO cells expressing EGFP-HS1BP3 WT or PRR3.1 mutant; n = 4; parent: est. 1.0; read off a plot
cortactin (CTTN), endogenous in MKN-74 cells, sequence (Q14247 whole entry): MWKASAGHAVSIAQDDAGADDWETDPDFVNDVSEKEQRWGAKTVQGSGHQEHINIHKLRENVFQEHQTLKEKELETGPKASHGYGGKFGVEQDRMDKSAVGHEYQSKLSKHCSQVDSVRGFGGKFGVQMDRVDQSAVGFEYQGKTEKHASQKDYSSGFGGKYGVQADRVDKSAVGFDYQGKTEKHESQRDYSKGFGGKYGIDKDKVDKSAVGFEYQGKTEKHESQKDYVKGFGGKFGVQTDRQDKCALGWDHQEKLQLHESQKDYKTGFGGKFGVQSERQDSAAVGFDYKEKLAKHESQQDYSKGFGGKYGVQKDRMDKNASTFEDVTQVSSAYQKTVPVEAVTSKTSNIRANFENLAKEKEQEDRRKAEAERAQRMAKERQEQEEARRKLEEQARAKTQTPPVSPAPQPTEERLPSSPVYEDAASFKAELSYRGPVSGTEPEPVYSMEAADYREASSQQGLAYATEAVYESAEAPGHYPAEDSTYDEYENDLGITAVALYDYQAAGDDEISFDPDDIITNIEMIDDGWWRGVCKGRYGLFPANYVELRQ

GST-SH3 (SH3 domain of cortactin fused to GST), sequence (Q14247 492-550): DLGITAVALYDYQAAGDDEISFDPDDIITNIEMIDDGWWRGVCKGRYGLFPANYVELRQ
EGFP-HS1BP3 WT, sequence (Q53T59 whole entry, change not shown): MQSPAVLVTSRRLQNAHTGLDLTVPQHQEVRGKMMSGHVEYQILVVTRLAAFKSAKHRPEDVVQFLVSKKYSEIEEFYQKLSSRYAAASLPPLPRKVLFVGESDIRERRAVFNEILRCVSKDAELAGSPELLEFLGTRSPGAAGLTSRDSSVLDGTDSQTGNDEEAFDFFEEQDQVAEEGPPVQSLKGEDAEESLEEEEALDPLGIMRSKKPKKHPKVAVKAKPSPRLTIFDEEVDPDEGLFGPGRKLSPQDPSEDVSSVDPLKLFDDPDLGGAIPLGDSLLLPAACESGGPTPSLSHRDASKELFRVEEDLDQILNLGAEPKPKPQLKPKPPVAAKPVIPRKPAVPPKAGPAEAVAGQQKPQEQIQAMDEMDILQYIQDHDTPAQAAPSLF
full-length MBP-HS1BP3 (from UniProt Q53T59) PRR3.1 mut (prolines of PRR3.1 replaced with alanine), sequence (Q53T59 whole entry, change not shown): as above
full-length MBP-HS1BP3 (from UniProt Q53T59) PRR3.1+3.2 mut (prolines of PRR3.1 and PRR3.2 replaced with alanine), sequence (Q53T59 whole entry, change not shown): as above
full-length MBP-HS1BP3 (from UniProt Q53T59) PRR3.2 mut (prolines of PRR3.2 replaced with alanine), sequence (Q53T59 whole entry, change not shown): as above

Row | Substance | ratio to parent [1] | response [2] | ratio to parent [3]
1 | full-length MBP-HS1BP3 (from UniProt Q53T59) PRR3.2 mut (prolines of PRR3.2 replaced with alanine) | 0.31 |  | 
2 | full-length MBP-HS1BP3 (from UniProt Q53T59) PRR3.1+3.2 mut (prolines of PRR3.1 and PRR3.2 replaced with alanine) | 0.51 |  | 
3 | EGFP-HS1BP3 WT (from UniProt Q53T59) PRR3.1 mut (prolines of PRR3.1 replaced with alanine) |  | 0.3 | 0.82
4 | full-length MBP-HS1BP3 (from UniProt Q53T59) PRR3.1 mut (prolines of PRR3.1 replaced with alanine) | 0.07 |  | 
